Article PMC10621992

Molecular target: TBK1 (UniProt Q9UHD2)
Experiment: co-immunoprecipitation, immunoblot
Details: reference: wild-type IRF3 + TBK1 + BLK; sites Y107

binding against the reference: weaker
Substance: IRF3 (from UniProt Q14653) IRF3(Y107F) + TBK1 + BLK
